Laboratory results: patent publication US20220153824A1 (University of Pennsylvania, published 2022)

What was measured:
mouse C5a = biological target: T1, mouse C5a (mouse, UniProt P06684 679-755); test: ELISA, plate coated with mouse C5a
T1 construct: domain: C5a; also called purified mouse C5a
T1 sequence (looked up): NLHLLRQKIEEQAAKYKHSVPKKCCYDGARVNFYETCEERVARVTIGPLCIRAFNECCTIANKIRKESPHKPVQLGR
Experimental: (§1) An ELISA plate was coated with human C5a or mouse C5a. After incubation with serially diluted 7A12 or the control anti-C5 mAb, bound mAb was detected by HRP-conjugated anti-mouse IgG. […] Since mAb 7A12 reacts with the whole C5 protein (as shown in FIG. 1), it can be concluded that mAb 7A12 binds both the C5a moiety of native human C5 and free human C5a. On the other hand, no binding of the control anti-C5 mAb to human C5a was seen, as depicted in FIG. 3B.

human C5a = biological target: T2, human C5a (human, UniProt P01031 678-751); test: ELISA, plate coated with human C5a
T2 construct: domain: C5a; Purified human C5a (Hycult) in ELISA; recombinant human C5a in the Transwell assay; also called free human C5a; recombinant human complement C5a
T2 sequence (looked up): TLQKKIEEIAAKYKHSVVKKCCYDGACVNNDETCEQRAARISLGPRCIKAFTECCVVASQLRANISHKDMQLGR
Experimental: Polystyrene microtiter plates were coated with purified human C5 or C5a (50 ng/well, Hycult) in PBS at 37° C. for 1 hr. After aspirating the C5 or C5a solution, wells were blocked with PBS containing 1% BSA in PBS at room temperature for 1 hour. Wells without C5 or C5a coating served as background controls. Different concentration of 7A12 mAb or control anti-C5 mAb or chimeric 7A12, 50 μl/well in blocking solution, were added to the wells. Following 1 hour incubation at room temperature, the wells were extensively washed with PBST. Human C5 or C5a-bound mAb was detected by the addition of anti-mouse IgG HRP 1:4000 dilution in blocking solution, which was allowed to incubate for 1 hour at RT. After washing with PBST, the plate was developed with HRP substrate for 6-10 min. The reaction was stopped with 2N H2SO4 and plate was read at 450 nm in a micro plate reader.
as §1

B1: monoclonal anti-C5a antibody designated mAb 7A12 (antibody, V domains shown)
VH: QVQLQQSDAELVKPGASVKISCKVSGYTFTDHIIHWMNQRPEQGLEWIGYIYPRDGNTNYNENFKGKATLTADKSSSTAYMQLNSLTSEDSAVYFCARERNLEYFDYWGQGTTLTVSS
VL: DIVLTQSPASLAVSLGQRATISCKASQSVDYDGDNYMNWYQQKPGQPPKLLIYAASNLDSGIPARFSGSGSGTDFTLNIHPVEEEDAATYYCQQSNEDPYTFGGGTKLEIKR
notes: also called 7A12 mAb
- binding result (mouse C5a): no binding
- binding result (human C5a): binds
